This note sets out measurements from US7338932.

In data set [1] the target is EA2 acceptor peptide (…) (rat). The experiment in a line: cell-based or functional assay.
In data set [2] the test system is EA2 acceptor peptide (PTTDSTTPAPTTK).
Data set [3] concerns MUC7 acceptor peptide (Ac-CPPTPSATTPAPPSSSAPPETTAA).
The target of data set [4] is MUC2 acceptor peptide (…) (human). Nature of the data set: cell-based or functional assay.
Chain of MUC2 acceptor peptide (…) (human) (peptide, as listed by the source): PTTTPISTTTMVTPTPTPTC

Chain of purified human recombinant GalNAc-T2 (enzyme source of Examples 1-6) (chain, as listed by the source): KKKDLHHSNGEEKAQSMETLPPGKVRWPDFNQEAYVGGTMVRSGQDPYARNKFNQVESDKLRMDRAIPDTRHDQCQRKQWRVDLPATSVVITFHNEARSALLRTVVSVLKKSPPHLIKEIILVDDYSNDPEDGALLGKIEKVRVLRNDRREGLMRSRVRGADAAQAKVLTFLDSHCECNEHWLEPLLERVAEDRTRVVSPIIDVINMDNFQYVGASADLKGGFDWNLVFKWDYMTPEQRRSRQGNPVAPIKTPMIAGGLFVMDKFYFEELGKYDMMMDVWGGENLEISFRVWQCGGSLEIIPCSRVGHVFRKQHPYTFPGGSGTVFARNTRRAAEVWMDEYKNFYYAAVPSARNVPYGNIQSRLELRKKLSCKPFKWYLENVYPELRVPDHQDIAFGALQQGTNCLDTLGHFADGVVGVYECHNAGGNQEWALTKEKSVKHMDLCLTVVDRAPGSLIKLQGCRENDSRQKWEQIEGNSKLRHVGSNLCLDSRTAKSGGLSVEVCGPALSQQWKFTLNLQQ

On to “human recombinant GalNAc-T3 (enzyme source of Example 6) (from UniProt Q14435 52-633)”, for which, in data set [1], the galactosyltransferase activity with UDP-Gal donor substrate, no inhibitor is 6.3 nmol/min/mL.
Take “purified human recombinant GalNAc-T2 (enzyme source of Examples 1-6)”: the “GalNAc-T2 activity with UDP-Gal” value in data set [2] is “EA2, 1.5 nmol/min/ml”; in data set [3], “Muc7, 13 nmol/min/ml”.
For “purified human recombinant GalNAc-T2 (enzyme source of Examples 1-6) (from UniProt Q10471 52-571)”, the galactosyltransferase activity with UDP-Gal donor substrate, no inhibitor in data set [4] came to 90 nmol/min/mL.
